From the supplement of paper PMC10567573

B1: FAM46C (parent)
chain: FDHLQNRLIATKNPEEIRGGGLLK
B2: SLC35F2 (parent)
chain: QYLAERYKVNTPMLQSFINYCLLF

Variants of: B1
Assay: protein stability index of a GFP-peptide fusion (GPS, HEK-293T) (PSI 1-6); higher = more stable
Conditions: c terminus: a fixed tail appended
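Further: lentivirally expressed fusions sorted by FACS into six bins by GFP to DsRed ratio, PSI derived from sequencing read proportions per bin multiplied by bin number.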

Protein stability index: each site, then its substitutions
E16: A 3.43; K 4.02; S 3.48; Q 3.58; G 2.93; L 2.9; H 2.55; C 2.85; W 2.5; I 3.9; P 2.73
I17: C 4.18; R 3.86; Q 4.86; P 3.55; K 3.39; D 4.52; F 3.46; M 3.82; S 4.35; W 3.44; T 4.01; A 4.4; H 4.28; Y 3.58
G20: T 3.51; L 4.19; Y 2.85; V 3.2; M 2.76; D 4.05; R 4.03; I 3.11; C 3.21; N 3.74; P 3.6
K12: L 2.65; A 3.68; C 2.9; E 3.71; M 3.37; V 4.38; N 3.82; Q 3.61; G 4; T 3.75
H3: N 3.05; S 3.17; C 3.63; D 4.52; V 3.87; M 3.71; I 3.59; G 3.79; A 3.72; L 3.25; W 2.99
T11: C 3.41; Q 4.2; M 3.7; W 3.98; V 3.74; E 4.71; S 3.56; D 3.75; P 3.63; Y 3.31; A 3.55; L 4.29
I9: W 2.16; Y 3.56; D 3.5; F 3.53; S 3.98; T 4.4; N 4.06; M 3.58; L 4.44; Q 4.57; R 4.05; H 3.05; A 4.86; G 4.3; K 4.27
G19: E 4.04; P 3.29; D 4.6; Q 3.74; S 3.69; F 1.73; N 3.79; Y 3.25; V 3.18; L 2.57; M 2.61; W 1.74; A 3.48; C 3.57; R 4.27; I 3.18
N13: F 2.96; M 2.81; I 3.47; E 4.1; Q 3.86; C 3.15; T 3.64; W 3.14; H 2.77
L23: E 4.17; T 4.56; S 3.93; V 4.3; M 4.55; H 4.73; K 5.07; Q 5.13; R 4.29; A 3.81; N 4.43; W 3.2; I 4.02
L8: G 4.39; P 4.72; T 4.34; K 4.16; V 2.97; Y 4.4; R 3.72; F 3.23; S 4.62; M 3.99; N 4.45; W 4; D 5.05; A 4.43
F1: Q 4.74; W 3.76; D 5.18; K 4.45; E 4.33; L 4.51; N 4.4; Y 3.27
P14: C 3.74; Q 3.54; S 3.49; T 3.84; Y 3.2; K 3.77; R 4; A 3.69; D 3.87; M 3.66; L 3.87; F 2.97; G 4.2
A10: E 4; Y 1.87; P 4.52; K 3.49; C 3.46; N 4.07; V 3.38; I 2.71; T 3.88
R7: V 3.43; Y 2.99; F 3.82; P 4.07; D 4.65; C 3.37; I 3.67; L 2.94; Q 3.64; K 4.19; M 3.54
Q5: S 4; F 3.27; A 4.57; E 3.82; C 3.96; T 3.99; P 3.63; R 2.86; L 2.17; K 3.67; N 3.44
L4: S 4.8; R 4.28; I 3.24; H 4.79; V 3.54; T 4.27; D 4.02; Y 3.85; N 4.14; M 4.04
L22: D 4.71; E 4.3; G 4.02; A 4.86; H 4.2; N 4.57; R 3.98; Y 3.78; K 4.46; F 2.76; Q 4.06; P 4.2
K24: T 3.45; N 3.52; F 2.2; H 3.07; V 2.29; Y 1.93; R 3.35; C 2.28; G 3.52; L 2.18; D 3.51; M 3.11; S 2.9; W 1.95; I 1.96
E15: F 3.06; K 3.25; S 3.75; Y 1.97; A 3.92; G 2.99; N 3.95; Q 2.53; H 3.65; W 2.63; M 4.01; P 3.13; C 2.9; T 3.29; D 4.07
D2: S 4.75; P 4.23; K 3.24; A 2.78; L 2.33; H 3.1; I 1.04; F 1.89; Y 2.8; R 3; G 2.82; Q 4.32
G21: S 4.06; L 2.61; P 3.91; K 4.26; Y 3.21; V 3.53; Q 3.41; I 2.92; D 4; C 3.29; H 3.94; M 3.25; T 4.07; W 2.28
N6: C 1.88; F 2.38; A 3.58; K 3.81; G 3.03; I 2.56; P 4.46; S 3.31; E 3.87; T 1.91; M 3.32
R18: L 3.39; C 4.44; D 4.42; Q 4.37; A 3.75; P 4.26; T 3.2; E 4.67; M 3.03

Variants of: B2
Assay: as above
Conditions: c terminus: a fixed tail appended

Protein stability index of substitutions, site by site:
L3: A 3.3; E 1.45; H 2.5; I 3.32; G 2.92; D 3; F 3.46; C 2.93; K 2.43; M 2.5
Y2: Q 1.97; F 3.47; C 2.17; R 2.1; I 1.68; G 2.52; D 1.83; W 2.26; K 2.17; V 2.59; M 1.24; P 1.74; E 1.93; T 2.29; N 2.61; L 2.15; H 1.89; S 2.08; A 2.29
Q1: S 2.47; W 2.68; C 3.23; R 1.94; P 1.77; M 2.43; D 3.23; E 1.97; N 2.15; K 2.27; A 2.56; Y 2.86; G 3.99; L 2.23; I 2.1; T 2.71; F 2.37; H 1.53; V 3.18
